These results are taken from US12319742 (SHATTUCK LABS, dated 2025).

Experiment [1] has as its target T1, biotinylated recombinant human FcRn-His tagged protein (Acro #FCM-H82W7) (human, UniProt P55899 24-297; P61769 21-119, biotinylated).
T1 construct: also called hFcRn; neonatal Fc receptor
As to the kind of experiment: BLI/Octet; biotinylated human FcRn-His on streptavidin biosensor; pH 6.0. The protocol: (§1) Figure 5D: FIG. 5D. FcRn binding kinetics by anti-TNFRSF25 antibodies. BLI assay was performed using the Octet Red 96e instrument. Streptavidin biosensors were loaded with biotinylated recombinant human(h) FcRn-His tagged protein (Acro #FCM-H82W7) as the ligand. During the association phase, biosensors were incubated with anti-DR3 candidate antibodies at various concentrations for 600 seconds, followed by a 600-second dissociation phase.
(§2) To detect binding of certain whole antibodies to the neonatal Fc receptor (FcRn) at neutral and acidic pH conditions, streptavidin biosensors were loaded with biotinylated recombinant human FcRn-His tagged protein (Acro #FCM-H82W7) as the ligand. During the association phase, biosensors were incubated with anti-TNFRSF25 antibodies at various concentrations for 600 seconds, followed by a 600 second dissociation phase.
(In general: Biolayer interferometry detects binding as a change in optical thickness at a sensor tip.)

In experiment [2] the target is T1, biotinylated recombinant human FcRn-His …. Description: BLI/Octet; biotinylated human FcRn-His on streptavidin biosensor; pH 7.4. The method, then:
as §1, §2

Experiment [3] has as its target T2, CD40.
T2 construct: member of group m24; also called CD40 overexpressed in engineered mammalian cells
As to the kind of experiment: flow cytometry on engineered mammalian cells overexpressing CD40, APC anti-human Fc. A general note: A flow cytometer gives signals particle by particle.

In experiment [4] the target is T3, GITR.
T3 construct: member of group m24; also called GITR overexpressed in engineered mammalian cells
T3 chain: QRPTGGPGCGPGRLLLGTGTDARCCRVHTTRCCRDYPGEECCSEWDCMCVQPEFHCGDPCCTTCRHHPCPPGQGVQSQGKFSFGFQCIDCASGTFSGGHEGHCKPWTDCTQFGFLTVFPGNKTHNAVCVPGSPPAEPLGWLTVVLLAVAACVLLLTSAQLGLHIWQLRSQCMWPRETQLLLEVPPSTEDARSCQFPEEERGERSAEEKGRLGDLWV
As to the kind of experiment: flow cytometry on engineered mammalian cells overexpressing GITR, APC anti-human Fc.

For experiment [5], the target named is T4, LTbR.
T4 construct: member of group m24; also called LTbR overexpressed in engineered mammalian cells
Description: flow cytometry on engineered mammalian cells overexpressing LTbR, APC anti-human Fc.

For experiment [6], the target named is T5, OX40.
T5 construct: member of group m24; also called OX40 overexpressed in engineered mammalian cells
T5 chain: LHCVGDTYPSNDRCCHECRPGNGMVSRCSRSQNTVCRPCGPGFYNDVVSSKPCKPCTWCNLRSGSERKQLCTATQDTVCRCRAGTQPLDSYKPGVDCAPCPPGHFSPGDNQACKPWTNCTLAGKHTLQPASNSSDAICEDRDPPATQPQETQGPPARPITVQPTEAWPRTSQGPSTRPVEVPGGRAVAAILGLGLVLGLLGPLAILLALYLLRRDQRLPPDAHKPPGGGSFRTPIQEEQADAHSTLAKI
As to the kind of experiment: flow cytometry on engineered mammalian cells overexpressing OX40, APC anti-human Fc.

For experiment [7], the target named is T6, TNFRSF25 on lymphocytes in human PBMCs (human, UniProt Q93038 25-417).
T6 construct: whole, on cells; also called TNFRSF25 on CD4+ and CD8+ T cells and NK cells
T6 sequence (looked up): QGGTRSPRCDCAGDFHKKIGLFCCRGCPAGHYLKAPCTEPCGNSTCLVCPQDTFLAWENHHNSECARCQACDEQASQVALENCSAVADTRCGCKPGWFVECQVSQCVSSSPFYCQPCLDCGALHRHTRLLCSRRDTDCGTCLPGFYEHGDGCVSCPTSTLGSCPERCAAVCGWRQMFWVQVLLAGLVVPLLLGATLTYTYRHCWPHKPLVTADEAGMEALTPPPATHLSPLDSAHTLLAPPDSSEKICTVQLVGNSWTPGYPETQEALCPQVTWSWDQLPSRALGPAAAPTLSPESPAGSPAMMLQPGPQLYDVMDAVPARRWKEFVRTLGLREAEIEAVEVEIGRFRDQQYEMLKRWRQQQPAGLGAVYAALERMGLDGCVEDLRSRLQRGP
Description: flow cytometry MFI on CD4+ T cells of human PBMCs, no stimulation, APC anti-human Fc.

Experiment [8] concerns the target T6, TNFRSF25 on lymphocytes in human PBMCs. As to the kind of experiment: flow cytometry MFI on NK cells of human PBMCs, IL12+IL18 stimulation 24 h, APC anti-human Fc. The method, then: (§3) Human PBMCs were stimulated with either IL12+IL18 or anti-CD3/CD28 for 24 hours to assess binding of anti-TNFRSF25 to lymphocyte subsets.
(§4) Figure 9: FIG. 9. […] Figure 10: FIG. 10.

The target in experiment [9] is T7, biotinylated recombinant human TNFRSF25-His tagged (Acro #TN5-H52H3) (human, UniProt Q93038 25-199, biotinylated).
T7 construct: treated as the same protein; also called recombinant biotin-conjugated human TNFRSF25 protein; DR3
T7 sequence (looked up): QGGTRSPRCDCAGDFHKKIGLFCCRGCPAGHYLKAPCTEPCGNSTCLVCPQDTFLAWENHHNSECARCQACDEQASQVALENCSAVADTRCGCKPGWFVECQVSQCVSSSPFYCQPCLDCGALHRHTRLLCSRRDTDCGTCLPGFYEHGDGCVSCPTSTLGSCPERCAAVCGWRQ
As to the kind of experiment: SPR (Biacore); biotinylated TNFRSF25-His on streptavidin chip SA; 2 min association, 30 min dissociation; 1:1 binding. The method, then: (FIG. 5A) BLI assay was performed using the Octet Red 96e instrument. Streptavidin biosensors were loaded with biotinylated recombinant human TNFRSF25-His tagged (Acro #TN5-H52H3) as the ligand. […] (FIG. 5B) SPR was performed on a Biacore 8K instrument.
For orientation: Surface plasmon resonance follows binding to a sensor surface in real time, without labels.

Experiment [10] has as its target T6, TNFRSF25 on lymphocytes in human PBMCs. As to the kind of experiment: flow cytometry MFI on CD8+ T cells of human PBMCs (panel 1003_CD8+T), IL12+IL18 stimulation 24 h, APC anti-human Fc. The protocol: as §3, §4
Experiment [11] has the same target. As to the kind of experiment: flow cytometry MFI on CD8+ T cells of human PBMCs (panel 1003_CD8+T), anti-CD3/CD28 stimulation 24 h, APC anti-human Fc. The protocol: as §3, §4

T1 sequence (P55899 24-297 limits assumed, chain 1 of 2): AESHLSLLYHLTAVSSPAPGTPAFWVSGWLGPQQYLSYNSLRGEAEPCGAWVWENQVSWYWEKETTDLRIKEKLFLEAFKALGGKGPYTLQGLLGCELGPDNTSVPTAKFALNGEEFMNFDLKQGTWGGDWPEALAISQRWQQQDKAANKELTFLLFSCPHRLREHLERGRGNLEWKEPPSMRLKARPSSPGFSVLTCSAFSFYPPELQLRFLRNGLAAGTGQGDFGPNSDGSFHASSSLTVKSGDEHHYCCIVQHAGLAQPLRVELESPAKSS
T1 sequence (P61769 21-119 limits assumed, chain 2 of 2): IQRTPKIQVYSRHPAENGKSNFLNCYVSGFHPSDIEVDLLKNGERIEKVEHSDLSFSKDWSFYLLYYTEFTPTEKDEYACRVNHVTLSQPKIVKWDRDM
T2 sequence (chain, as listed by the source limits assumed): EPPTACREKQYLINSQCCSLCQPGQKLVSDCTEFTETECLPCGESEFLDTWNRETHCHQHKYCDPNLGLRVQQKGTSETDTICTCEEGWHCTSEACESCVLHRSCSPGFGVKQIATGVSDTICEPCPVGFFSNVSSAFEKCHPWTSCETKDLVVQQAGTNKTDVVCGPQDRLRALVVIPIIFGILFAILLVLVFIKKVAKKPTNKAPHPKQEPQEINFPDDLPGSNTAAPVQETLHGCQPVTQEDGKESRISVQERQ

B1: SL-061 (antibody, human IgG1, kappa)
heavy: QVQLQQSGPGLVKPSQTLSLTCAISGDSVSGYSAAWNWIRQSPSRGLEWLGRTYYRSKWYNDYAVSVKSRITINPDTSKNQFSLQLNSVTPEDTAVYYCARDYYGSESYYNRGYYYYGMDVWGQGTTVTVSSASTKGPSVFPLAPSSKSTSGGTAALGCLVKDYFPEPVTVSWNSGALTSGVHTFPAVLQSSGLYSLSSVVTVPSSSLGTQTYICNVNHKPSNTKVDKKVEPKSCDKTHTCPPCPAPEAAGAPSVFLFPPKPKDTLMISRTPEVTCVVVDVSHEDPEVKFNWYVDGVEVHNAKTKPREEQYNSTYRVVSVLTVLHQDWLNGKEYKCKVSNKALPAPIEKTISKAKGQPREPQVYTLPPSREEMTKNQVSLTCLVKGFYPSDIAVEWESNGQPENNYKTTPPVLDSDGSFFLYSKLTVDKSRWQQGNVFSCSVMHEALHNHYTQKSLSLSPGK
light: AIQLTQSPSSLSASVGDRVTITCRASPGISSALAWYQQKPGKAPKLLMYDESSQESGVPSRFSGSGSGTDFTLTISSLQPEDFATYYCQQFNDYPLTFGGGTKVEIKRTVAAPSVFIFPPSDEQLKSGTASVVCLLNNFYPREAKVQWKVDNALQSGNSQESVTEQDSKDSTYSLSSTLTLSKADYEKHKVYACEVTHQGLSSPVTKSFNRGEC
notes: Same variable regions as SL-033; IgG1 with L234A/L235A+G237A; also called clone 061; SL-061 (L234A/L235A+G237A)
Usually Kd stands for the constant that tells how readily two partners part at equilibrium. For orientation: koff means the rate constant with which the complex falls apart. What is called kon is a measure of how fast the partners come together. Usually EC50 stands for the midpoint of the concentration-response curve. Read a high EC50 as a less potent agent. With B1, the dissociation constant (Kd) in [1] turned out to be 4.41 nM; in [2] it was 7.41 nM. Besides, the koff in [1] was 0.00104 s⁻¹; in [2], 0.00327 s⁻¹; in [9], 3.89e-06 s⁻¹. Also, the figures for the association rate constant (kon) in experiment [1], in experiment [2] and in experiment [9] were 235000 M⁻¹ s⁻¹, 441000 M⁻¹ s⁻¹ and 2.85e+06 M⁻¹ s⁻¹, respectively. The binding result in experiment [3], in [4], in [5] and in [6] was “no binding (tested: about 20 nM)” each time. For the same molecule, the EC50 in experiment [7] was 0.035 nM; in [8], 0.065 nM; in experiment [10], 0.043 nM; in experiment [11] it was 0.059 nM.
